Results from paper PMC3378324 (Febs Letters, 2012).

T1: Human Alix recombinant construct ALIX(V+PRR), residues 362-760 (human, UniProt Q8WUM4 362-760)
T1 sequence (looked up): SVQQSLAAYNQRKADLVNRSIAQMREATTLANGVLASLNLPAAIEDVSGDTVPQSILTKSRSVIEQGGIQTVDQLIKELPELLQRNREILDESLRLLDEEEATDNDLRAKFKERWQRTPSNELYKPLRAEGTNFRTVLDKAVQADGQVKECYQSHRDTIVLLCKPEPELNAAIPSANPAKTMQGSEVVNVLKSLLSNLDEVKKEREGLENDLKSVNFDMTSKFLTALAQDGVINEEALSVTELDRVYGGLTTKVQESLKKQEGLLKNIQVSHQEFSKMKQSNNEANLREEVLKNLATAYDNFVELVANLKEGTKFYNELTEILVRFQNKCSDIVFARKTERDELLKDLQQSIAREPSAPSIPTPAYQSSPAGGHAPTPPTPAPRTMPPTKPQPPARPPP


Assays:
[1] = biological target: T1, Human Alix recombinant construct …; assay: pull-down
[2] = biological target: T1, Human Alix recombinant construct …; assay: NMR titration

binding result [1] | binding result [2] | Binder
binds |  | Fyn(R96I)-SH3-GST (domain or fragment) not shown
 | binds | Fyn(R96I)-SH3, 6xHis C-terminal fusion (domain or fragment) not shown
binds |  | Hck-SH3-GST (domain or fragment) not shown
